# Values of other authors, collected in PMC12368481, “Discovery of a Phenylalanine‐Derived Natural Compound as a Potential Dual Inhibitor of MDM2 and MDMX” (Chemmedchem, 2025).
# Like-named read-outs stand apart in the source and are kept apart here.
# Key:
# [1] = molecular target: p53 peptide (Homo sapiens) (UniProt P04637)
# [2] = molecular target: p53 peptide (Homo sapiens) (UniProt P04637); remark: listed apart in the source
# p53 peptide (Homo sapiens), sequence (P04637 whole entry): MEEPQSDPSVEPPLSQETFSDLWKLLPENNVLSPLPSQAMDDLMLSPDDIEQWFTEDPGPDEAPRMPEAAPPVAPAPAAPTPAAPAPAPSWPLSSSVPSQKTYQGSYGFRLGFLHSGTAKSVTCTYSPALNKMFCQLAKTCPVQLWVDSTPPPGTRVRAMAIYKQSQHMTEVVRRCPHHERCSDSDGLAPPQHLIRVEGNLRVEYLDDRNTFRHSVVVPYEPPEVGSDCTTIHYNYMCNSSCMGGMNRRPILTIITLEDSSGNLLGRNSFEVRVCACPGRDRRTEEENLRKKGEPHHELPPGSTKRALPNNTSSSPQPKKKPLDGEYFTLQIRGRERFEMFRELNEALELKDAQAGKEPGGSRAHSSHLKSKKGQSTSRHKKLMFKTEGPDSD
# MDM2, sequence (Q00987 whole entry): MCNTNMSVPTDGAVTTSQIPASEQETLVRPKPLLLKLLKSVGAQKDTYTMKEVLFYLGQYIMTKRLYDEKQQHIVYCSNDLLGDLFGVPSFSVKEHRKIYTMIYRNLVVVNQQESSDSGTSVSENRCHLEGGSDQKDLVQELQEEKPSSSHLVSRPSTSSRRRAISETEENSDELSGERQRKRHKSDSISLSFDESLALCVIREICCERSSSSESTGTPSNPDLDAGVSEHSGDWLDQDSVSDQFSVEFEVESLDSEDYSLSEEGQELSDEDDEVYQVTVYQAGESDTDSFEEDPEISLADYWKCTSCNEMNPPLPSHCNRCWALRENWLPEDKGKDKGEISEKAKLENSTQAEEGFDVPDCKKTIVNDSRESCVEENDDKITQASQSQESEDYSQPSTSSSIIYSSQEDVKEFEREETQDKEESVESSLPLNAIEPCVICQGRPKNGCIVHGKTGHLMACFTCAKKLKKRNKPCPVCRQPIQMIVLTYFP
# MDMX, sequence (O15151 whole entry): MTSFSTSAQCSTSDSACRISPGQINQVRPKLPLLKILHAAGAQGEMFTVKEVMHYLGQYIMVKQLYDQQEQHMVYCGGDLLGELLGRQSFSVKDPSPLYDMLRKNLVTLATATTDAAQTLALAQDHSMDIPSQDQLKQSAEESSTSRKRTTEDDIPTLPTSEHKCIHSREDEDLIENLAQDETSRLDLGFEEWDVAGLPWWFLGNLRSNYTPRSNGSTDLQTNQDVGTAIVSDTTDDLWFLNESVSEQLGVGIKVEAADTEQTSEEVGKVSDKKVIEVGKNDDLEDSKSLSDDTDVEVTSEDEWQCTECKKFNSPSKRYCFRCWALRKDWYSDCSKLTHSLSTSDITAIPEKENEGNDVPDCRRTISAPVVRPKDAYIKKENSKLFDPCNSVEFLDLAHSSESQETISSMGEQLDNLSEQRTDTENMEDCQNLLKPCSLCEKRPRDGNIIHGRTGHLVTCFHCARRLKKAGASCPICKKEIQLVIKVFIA
Substance,Kd [1] [nM],Kd [2] [nM]
MDM2 (from UniProt Q00987),1110,
MDMX (from UniProt O15151),,340
